Data reported in patent US20260125454A1 (SHANGHAI JUNSHI BIOSCIENCES, published 2026).
Changes are numbered by the printed parent chain. Like-named read-outs stand apart in the source and are kept apart here.

T1: Biotin-huCGRPaSA (human, not fully specified; biotin (position not given))
T1 construct: exact construct ('aSA') not explained; also called Biotin CGRPaSA; full-length (1-37) CGRP
T1 peptide: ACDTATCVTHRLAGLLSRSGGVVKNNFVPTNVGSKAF

T2: human β-CGRP (human, UniProt P10092 82-118, not fully specified)
T2 construct: mature; also called human full-length (1-37) β-CGRP polypeptide (Anaspec)
T2 peptide (looked up): T1 peptide with D3N, V22M, N25S

T3: synthetic human α-CGRP polypeptide (SEQ ID NO: 97)-NH2 (human, C-terminal phenylalanine amide (F-NH2); one intrachain disulfide bond between the two CYS residues (printed as positions 7 and 12))
T3 construct: Analyte in solution (50 nM) in the pH-dependence BLI assay
T3 peptide: T1 peptide

B1: C117 (antibody, V domains shown)
VH: EVQLQQSGPELVKPGASVKISCKASGYTFTDYNMHWVKQSHGKSLEWIGNIYPYNGGTVYNQKFNNKATLTVHTSSSTAYMDLRSLTSDDSAVYYCAREGLGGYWGQGTTLTVSS
VL: DIVLTQSPASLAVSLGQRATISCKASQNIDYDGYAYLNWYQQKPGQPPKVLIYSVFNLESGIPARFSGSGSGTDFTLNIHPVEEEDAATYYCQQSNEFPYTFGGGTKLEVK
notes: 2B8-HC1 + 1A2-LC2; chimeric, human constant regions
B2: C269 (antibody, V domains shown)
VH: B1 VH with A24T, N50Y, Y52S, V59A, N65K, N66F, A68S, H73D, D82E, D89E
VL: B1 VL with A35T, V55I, F98V, V110I
notes: 3E5-HC + 3E5-LC; chimeric, human constant regions
B3: 3E5 (antibody, V domains shown)
VH: B1 VH with A24T, N50Y, Y52S, V59A, N65K, N66F, A68S, H73D, D82E, D89E
VL: B1 VL with A35T, V55I, F98V, V110I
notes: murine hybridoma supernatant; also called hybridoma antibody 3E5
B4: C79 (antibody, V domains shown)
VH: EVQLQQSGPELVKPGASVKISCKTSGYTFIDFNMHWVKQSHGKSLEWIGYIYPYNGDVVYNQNFTNKATLTVDSSSSTAYMELRRVTSEDSAIYYCAREGLGGYWGQGTTLTVSS
VL: DVVLTQSPTSLAVSLGQRATISCQASQNIDGNTYMNWYQQKPGQPPKVLIYSIFNLESGIPARFSGSGSGTHFTLTIHPVEEEDAATYYCQQSNDYPYTFGGGTKLEIK
notes: 1F5-HC + 2B8-LC2; chimeric, human constant regions
B5: C71 (antibody, V domains shown)
VH: B4 VH
VL: B1 VL
notes: 1F5-HC + 1A2-LC2; chimeric, human constant regions
B6: C74 (antibody, V domains shown)
VH: B4 VH
VL: B1 VL with Y31F, L37M, Q42H, K49R, N96H, F98V, K107N, V110I
notes: 1F5-HC + 1F5-LC1; chimeric, human constant regions
B7: 3C1 (antibody, V domains shown)
VH: EVQLQQSGPELVKPGASMKISCKASGYSFTGYTMNWVKQSHGNNLEWIGLINPYIGNTHYNQKFKDKATFTVDRSSSTAYMALLSLTSEDSAVYYCARELDSGFDYWGQGTTLTVSS
VL: DVLMTQTPLSLPVSLGDQASLSCRSSQNIVHSNGDTYLEWYLQKPGQSPKLLIYKVSNRFSGVPDRFSGSGSGTDFTLKISRVEAEDLGVYYCYQGSHVPWTFGGGTKLEIK
notes: murine hybridoma supernatant; also called hybridoma antibody 3C1
B8: hu224 (antibody, human IgG4 S228P, kappa, V domains shown)
VH: QVQLVQSGAEVKKPGASVKVSCKASGYSFTGYTMNWVRQAPGQRLEWMGLINPYIGNTHYNQKFKDRVTFTVDRSSSTAYMELSSLRSEDTAVYYCARELDSGFDYWGQGTLVTVSS
VL: DVVMTQSPDSLAVSLGERATINCRSSQNIVHSNGDTYLEWYQQKPGQPPKLLIYKVSNRFSGVPDRFSGSGSGTDFTLTISSLQAEDVAVYYCYQGSHVPWTFGQGTKLEIKR

Assays:
[1] = target: T1, Biotin-huCGRPaSA; assay: ELISA, purified antibody; relative to reference 47-RM-20190815
Experimental: Streptavidin was diluted to […] by using PBS (Hyclone) and added into a plate at 100 μL/well. The plate was incubated in a thermostat incubator at 37° C. for 90 min and then washed. 2% BSA was added to the plate at 200 μL/well, and the plate was incubated in the thermostat incubator at 37° C. for 90 min and washed. Biotin-huCGRPaSA was diluted to 2.0 μg/mL with 2% BSA and added into the plate at 100 μL/well, and the plate was incubated in the thermostat incubator at 37° C. for 60 min. The chimeric antibodies in Table 3 and reference antibody (47-RM-20190815) were diluted to 1000 ng/ml with a diluent (2% BSA) and serially 10-fold diluted to 1 ng/mL. All the chimeric antibody solutions and the reference antibody solution were added into plates at 100 μL/well, and the plates were incubated in a thermostat incubator at 37° C. for 60 min and washed. An HRP-conjugated mouse anti-human antibody IgG4 (manufacturer: Southern Biotech, Cat. No. 9200-05; Fc specificity) was diluted 5000-fold with 2% BSA and added into the plates at 100 μL/well, and the plates were incubated in the thermostat incubator at 37° C. for 60 min and washed. 0.1 mg/mL chromogenic reagent TMB was carefully added at 100 μL/well to avoid bubbles, and the system was incubated at 37° C. for 5 min away from light for chromogenic reaction. Finally, a 2 M hydrochloric acid solution was added at 100 μL/well to stop the reaction while avoiding bubbles, and the plates were read on a microplate reader within 10 min (the detection wavelength was 450 nm; the reference wavelength was 620 nm). EC₅₀ was fit by using a four-parameter logistic regression (4PL) model.

[2] = target: T1, Biotin-huCGRPaSA; assay: ELISA, transfection supernatant, biotin-CGRP on streptavidin
Experimental: Streptavidin was diluted to 0.5 μg/mL by using PBS (Hyclone) and added into a plate at 100 μL/well. The plate was incubated in a thermostat incubator at 37° C. for 90 min and then washed. 2% BSA was added to the plate at 200 μL/well, and the plate was incubated in the thermostat incubator at 37° C. for 90 min and washed. Biotin-huCGRPaSA was diluted to 2.0 μg/mL with 2% BSA and added into the plate at 100 μL/well, and the plate was incubated in the thermostat incubator at 37° C. for 60 min. The reference antibody (47-RM) was diluted to 2500 ng/ml with a diluent (2% BSA) and serially 4-fold diluted to 0.15 ng/mL, and the chimeric antibodies were diluted with a cell supernatant stock solution. All the chimeric antibody solutions and the reference antibody solution were added into plates at 80 μL/well, and the plates were incubated in a thermostat incubator at 37° C. for 60 min and washed. An HRP-conjugated mouse anti-human antibody IgG4 (manufacturer: Southern Biotech, Cat. No. 9200-05; Fc specificity) was diluted 5000-fold with 2% BSA and added into the plates at 100 μL/well, and the plates were incubated in the thermostat incubator at 37° C. for 60 min and washed. 0.1 mg/mL chromogenic reagent TMB was carefully added at 100 μL/well to avoid bubbles, and the system was incubated at 37° C. for 10 min away from light for chromogenic reaction. Finally, a 2 M hydrochloric acid solution was added at 100 μL/well to stop the reaction while avoiding bubbles, and the plates were read on a microplate reader within 10 min (the detection wavelength was 450 nm; the reference wavelength was 620 nm).

[3] = target: CGRP antigen; assay: cell-based or functional assay
[4] = target: CGRP antigen; assay: cell-based or functional assay; remark: listed apart in the source
[5] = target: T2, human β-CGRP; assay: ELISA, hybridoma supernatant
[6] = target: CGRP antigen; assay: cell-based or functional assay; remark: listed apart in the source
[7] = target: T3, synthetic human α-CGRP polypeptide (SEQ …); assay: BLI (Octet), antibody on AHC2, 50 nM CGRP; association pH 7.4, dissociation pH 5.5
Experimental: (§1) The association/dissociation profiles for three antibodies Hu224, galcanezumab analogue and fremanezumab analogue binding to the antigen human α-CGRP in solutions at different pH (7.4 and 5.5) were determined on an Octet RBD96e system. The pH 7.4 buffer contained 10 mM HEPES (pH 7.4), 150 mM sodium chloride, 3 mM EDTA, and 0.05% P20. The pH 5.5 buffer contained 10 mM NaAc (pH 5.5), 150 mM sodium chloride, and 0.05% P20. The three antibodies Hu224, galcanezumab analogue, and fremanezumab analogue were immobilized on the surfaces of AHC2 bioprobes (Sartorius, Cat. No. 18-5142) at 10 μg/mL, respectively. 50 nM human α-CGRPs diluted in different pH (7.4 and 5.5) buffers were used to bind to the antibodies during the 0 to 200 s antigen association phase, and different pH (7.4 and 5.5) buffers were used to wash during the 0 to 200 s antigen dissociation phase. The conditions were pH 7.4 association and pH 7.4 dissociation, pH 7.4 association and pH 5.5 dissociation, and pH 5.5 association and pH 5.5 dissociation. The binding signals of the antigen at the time of injection for 200 s were calculated using analytical software and fitted to give the dissociation constant kd. The amino acid sequence of the synthetic human α-CGRP polypeptide fragment is […] […]

[8] = target: T3, synthetic human α-CGRP polypeptide (SEQ …); assay: BLI (Octet), antibody on AHC2, 50 nM CGRP; association pH 7.4, dissociation pH 7.4
Experimental: as §1

[9] = target: CGRP antigen; assay: cell-based or functional assay; remark: listed apart in the source
[10] = target: T3, synthetic human α-CGRP polypeptide (SEQ …); assay: BLI (Octet), antibody on AHC2, 50 nM CGRP; association pH 5.5, dissociation pH 5.5
Experimental: as §1

[11] = target: T1, Biotin-huCGRPaSA; assay: ELISA, supernatant; relative to chimeric C245
Summary of the method: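 Plates coated with biotin-CGRPaSA at 1.0 μg/mL (90 min, 37°C) and blocked with 2% BSA. Humanized antibodies and chimeric C245 reference, 2.5-fold serial dilutions from 1000 ng/mL, bound 60 min at 37°C. Detection by HRP anti-human IgG (Fc), TMB 15 min, read at 450/620 nm.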

| Binder | Relative activity (%) [1] [%] | OD value [2] [OD] | Relative binding activity (%) vs Ref(Teva) [3] [%] | also measured |
| --- | --- | --- | --- | --- |
| B1 | 31.7 | 3.06 | 74.1 |  |
| B2 | 101 | 2.91 |  | EC50 (so labelled in the table under the curves; half-maximal inhibition of the CGRP-induced luciferase signal in SK-N-MC CRE 2E9 reporter cells, CGRP antigen at 4 ng/mL) [4]: 0.143 µg/mL |
| B3 |  |  |  | binding result [5]: binds |
| B4 | 59.8 | 3.03 | 71.1 | Relative binding activity (%) vs Ref(Teva) [6]: 71.1% |
| B5 | 47.3 | 3.06 | 106 |  |
| B6 | 39.5 | 3.06 | 76 |  |
| B7 |  |  |  | binding result [5]: binds |
| B8 |  |  |  | koff [7]: 0.0143 s⁻¹; koff [8]: 0.000265 s⁻¹; IC50 [9]: 0.0224 µg/mL; relative activity (%) vs C245 [9]: 80%; koff [10]: 0.0141 s⁻¹; Relative binding activity, % [11]: 82% |
